Measurements taken from IntAct's records for PubMed 31515488.

B1: 60 kDa heat shock protein, mitochondrial (Homo sapiens), P10809 (parent)
chain: MLRLPTVFRQMRPVSRVLAPHLTRAYAKDVKFGADARALMLQGVDLLADAVAVTMGPKGRTVIIEQSWGSPKVTKDGVTVAKSIDLKDKYKNIGAKLVQDVANNTNEEAGDGTTTATVLARSIAKEGFEKISKGANPVEIRRGVMLAVDAVIAELKKQSKPVTTPEEIAQVATISANGDKEIGNIISDAMKKVGRKGVITVKDGKTLNDELEIIEGMKFDRGYISPYFINTSKGQKCEFQDAYVLLSEKKISSIQSIVPALEIANAHRKPLVIIAEDVDGEALSTLVLNRLKVGLQVVAVKAPGFGDNRKNQLKDMAIATGGAVFGEEGLTLNLEDVQPHDLGKVGEVIVTKDDAMLLKGKGDKAQIEKRIQEIIEQLDVTTSEYEKEKLNERLAKLSDGVAVLKVGGTSDVEVNEKKDRVTDALNATRAAVEEGIVLGGGCALLRCIPALDSLTPANEDQKIGIEIIKRTLKIPAMTIAKNAGVEGSLIVEKIMQSSSEVGYDAMAGDFVNMVEKGIIDPTKVVRTALLDAAGVASLLTTAEVVVTEIPKEEKDPGMGAMGGMGGGMGGGMF
partner: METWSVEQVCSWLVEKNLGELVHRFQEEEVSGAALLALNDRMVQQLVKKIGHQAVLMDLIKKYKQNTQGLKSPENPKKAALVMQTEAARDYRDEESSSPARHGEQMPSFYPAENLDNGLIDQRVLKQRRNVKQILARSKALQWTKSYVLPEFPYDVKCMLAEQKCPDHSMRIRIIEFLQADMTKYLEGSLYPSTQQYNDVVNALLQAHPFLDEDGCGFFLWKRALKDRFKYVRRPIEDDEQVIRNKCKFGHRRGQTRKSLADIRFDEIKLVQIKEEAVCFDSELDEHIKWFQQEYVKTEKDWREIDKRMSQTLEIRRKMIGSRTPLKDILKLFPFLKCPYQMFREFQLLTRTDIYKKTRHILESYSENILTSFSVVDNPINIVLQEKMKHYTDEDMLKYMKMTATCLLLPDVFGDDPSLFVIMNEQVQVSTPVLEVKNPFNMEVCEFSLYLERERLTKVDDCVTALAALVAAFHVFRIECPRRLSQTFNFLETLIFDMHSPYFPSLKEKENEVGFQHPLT
B2: Coiled-coil domain-containing glutamate-rich protein 1 (Homo sapiens), Q8TC90 (parent)
chain: MTQTLDTREDPLNLGGGGGGGCGCGWAHSASLSSWSSCHRRRPGAPAYNRPHRYSPKTEYGPPRKQPKQQHGPGFWFQPPVCSNWGCWGGPWRPPPPGFWKFPCPVQVFRVYGLHPLCFCCCSCWSGSWNPGWVKPPGRKKRWGRRGRGLRHHPRHSYPRSPPADVSTLPRPVKLYEWREPGMRAPPNTTQFIMNQIYEDMRQQEKVERQQEALRAQKATVSGEASPARSSGNDAPPGGSKETWGLQETLYGFVQNPSLAFSPNPEENQSLAPLLVEEEEEKKNDDEEEYDQEVCDAKEASEEEEEVEDEEEEVEDEEEEEVEEAEYVEEGEEELEEEELEEEEEVLEENEQRGEEFHLPLEMPLSIFVEAEEKRENFISCTFLNPEQIIPKVPQESLFMAQDFNC
B3: Coiled-coil domain-containing protein 33 (Homo sapiens), Q8N5R6-5 (parent)
chain: MGEPGPPSPPAPKAAPGLIDSFSEMNNYRRAMQKMAEDILSLRRQASILEGENRILRSRLAQQEEEEGQGKASEAQNTVSMKQKLLLSELDMKKLRDRVQHLQNELIRKNDREKELLLLYQAQQPQAALLKQYQGKLQKMKALEETVRHQEKVIEKMERVLEDRLQDRSKPPPLNRQQGKPYTGFPMLSASGLPLGSMGENLPVELYSVLLAENAKLRTELDKNRHQQAPIILQQQALPVDPGELGAGGDLTERLQETHGPGHSECTETLPAQDLLSGTSDKFNLLAKLEHAQSRILSLESQLEDSARRWGREKQDLATRLQEQEKGFRHPSNSIIIEQPVSDPPGVAPRGSGGGAGSHRTPKVTGP
B4: Zinc finger CCCH-type with G patch domain-containing protein (Homo sapiens), Q8N5A5 (parent)
chain: MDEESLESALQTYRAQLQQVELALGAGLDSSEQADLRQLQGDLKELIELTEASLVSVRKSSLLAALDEERPGRQEDAEYQAFREAITEAVEAPAAARGSGSETVPKAEAGPESAAGGQEEEEGEDEEELSGTKVSAPYYSSWGTLEYHNAMVVGTEEAEDGSAGVRVLYLYPTHKSLKPCPFFLEGKCRFKENCRFSHGQVVSLDELRPFQDPDLSSLQAGSACLAKHQDGLWHAARITDVDNGYYTVKFDSLLLREAVVEGDGILPPLRTEATESDSDSDGTGDSSYARVVGSDAVDSAQSSALCPSLAVVGSDAVDSGTCSSAFAGWEVHTRGIGSRLLTKMGYEFGKGLGRHAEGRVEPIHAVVLPRGKSLDQCVETLQKQTRVGKAGTNKPPRCRGRGARPGGRPAPRNVFDFLNEKLQGQAPGALEAGAAPAGRRSKDMYHASKSAKRALSLRLFQTEEKIERTQRDIRSIQEALARNAGRHSVASAQLQEKLAGAQRQLGQLRAQEAGLQQEQRKADTHKKMTEF
B5: Retinoic acid receptor alpha (Homo sapiens), P10276 (parent)
chain: MASNSSSCPTPGGGHLNGYPVPPYAFFFPPMLGGLSPPGALTTLQHQLPVSGYSTPSPATIETQSSSSEEIVPSPPSPPPLPRIYKPCFVCQDKSSGYHYGVSACEGCKGFFRRSIQKNMVYTCHRDKNCIINKVTRNRCQYCRLQKCFEVGMSKESVRNDRNKKKKEVPKPECSESYTLTPEVGELIEKVRKAHQETFPALCQLGKYTTNNSSEQRVSLDIDLWDKFSELSTKCIIKTVEFAKQLPGFTTLTIADQITLLKAACLDILILRICTRYTPEQDTMTFSDGLTLNRTQMHNAGFGPLTDLVFAFANQLLPLEMDDAETGLLSAICLICGDRQDLEQPDRVDMLQEPLLEALKVYVRKRRPSRPHMFPKMLMKITDLRSISAKGAERVITLKMEIPGSMPPLIQEMLENSEGLDTLSGQPGGGGRDGGGLAPPPGSCSPSLSPSSNRSSPATHSP
partner: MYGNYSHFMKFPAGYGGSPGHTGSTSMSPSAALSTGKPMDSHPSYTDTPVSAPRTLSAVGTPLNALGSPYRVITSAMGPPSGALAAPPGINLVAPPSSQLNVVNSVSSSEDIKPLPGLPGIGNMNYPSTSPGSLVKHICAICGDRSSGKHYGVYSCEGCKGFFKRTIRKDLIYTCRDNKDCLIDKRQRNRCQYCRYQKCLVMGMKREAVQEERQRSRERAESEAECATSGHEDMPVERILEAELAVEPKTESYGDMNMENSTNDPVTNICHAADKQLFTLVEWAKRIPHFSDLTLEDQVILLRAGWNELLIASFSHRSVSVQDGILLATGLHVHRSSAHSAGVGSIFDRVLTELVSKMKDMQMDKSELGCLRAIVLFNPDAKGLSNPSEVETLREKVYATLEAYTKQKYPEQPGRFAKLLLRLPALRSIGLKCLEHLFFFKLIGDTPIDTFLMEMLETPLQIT

Variants of: B1
Conditions: with samd3_human SAMD3, Q8N6K7

Variant | effect of a mutation on the interaction
R142K | disrupting interaction strength
R9G | with no effect

Variants of: B2
Conditions: with pls1_human PLSCR1, O15162
Chain of pls1_human PLSCR1, O15162 (O15162 whole entry): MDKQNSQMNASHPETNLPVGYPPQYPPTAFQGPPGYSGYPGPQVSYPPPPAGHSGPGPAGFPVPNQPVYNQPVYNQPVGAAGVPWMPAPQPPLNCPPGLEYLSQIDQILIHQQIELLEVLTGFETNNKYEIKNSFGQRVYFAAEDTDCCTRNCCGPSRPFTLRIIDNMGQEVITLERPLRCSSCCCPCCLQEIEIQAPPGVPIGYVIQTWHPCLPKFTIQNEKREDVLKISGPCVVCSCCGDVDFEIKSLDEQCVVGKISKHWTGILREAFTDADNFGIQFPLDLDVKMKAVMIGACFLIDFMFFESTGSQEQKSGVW

Variant | effect of a mutation on the interaction
MTQTLDTREDPLNLGGGGGGGCGCGWAHSASLSSWSSCHRRRPGAPAYNRPHRYSPKTEYGPPRKQPKQQHGPGFWFQPPVCSNWGCWGGPWRPPPPGFWKFPCPVQVFRVYGLHPLCFCCCSCWSGSWNPGWVKPPGRKKRWGRRGRGLRHHPRHSYPRSPPADVSTLPRPVKLYEWREPGMRAPPNTTQFIMNQIYEDMRQQEKVERQQEALRAQKATVSGEASPARSSGNDAPPGGSKETWGLQETLYGFVQNPSLAFSPNPEENQSLAPLLVEEEEEKKNDDEEEYDQKVCDAKEASEEEEEVEDEEEEVEDEEEEEVEEAEYVEEGEEELEEEELEEEEEVLEENEQRGEEFHLPLEMPLSIFVEAEEKRENFISCTFLNPEQIIPKVPQESLFMAQDFNC [E293K] | with no effect

Variants of: B2
Conditions: with nt2na_human NOTCH2NLA

Variant | effect of a mutation on the interaction
MTQTLDTREDPLNLGGGGGGGCGCGWAHSASLSSWSSCHRRRPGAPAYNRPHRYSPKTEYGPPRKQPKQQHGPGFWFQPPVCSNWGCWGGPWRPPPPGFWKFPCPVQVFRVYGLHPLCFCCCSCWSGSWNPGWVKPPGRKKRWGRRGRGLRHHPRHSYPRSPPADVSTLPRPVKLYEWREPGMRAPPNTTQFIMNQIYEDMRQQEKVERQQEALRAQKATVSGEASPARSSGNDAPPGGSKETWGLQETLYGFVQNPSLAFSPNPEENQSLAPLLVEEEEEKKNDDEEEYDQKVCDAKEASEEEEEVEDEEEEVEDEEEEEVEEAEYVEEGEEELEEEELEEEEEVLEENEQRGEEFHLPLEMPLSIFVEAEEKRENFISCTFLNPEQIIPKVPQESLFMAQDFNC [E293K] | with no effect

Variants of: B3
Conditions: with smad3_human SMAD3, P84022
Chain of smad3_human SMAD3, P84022 (P84022 whole entry, looked up): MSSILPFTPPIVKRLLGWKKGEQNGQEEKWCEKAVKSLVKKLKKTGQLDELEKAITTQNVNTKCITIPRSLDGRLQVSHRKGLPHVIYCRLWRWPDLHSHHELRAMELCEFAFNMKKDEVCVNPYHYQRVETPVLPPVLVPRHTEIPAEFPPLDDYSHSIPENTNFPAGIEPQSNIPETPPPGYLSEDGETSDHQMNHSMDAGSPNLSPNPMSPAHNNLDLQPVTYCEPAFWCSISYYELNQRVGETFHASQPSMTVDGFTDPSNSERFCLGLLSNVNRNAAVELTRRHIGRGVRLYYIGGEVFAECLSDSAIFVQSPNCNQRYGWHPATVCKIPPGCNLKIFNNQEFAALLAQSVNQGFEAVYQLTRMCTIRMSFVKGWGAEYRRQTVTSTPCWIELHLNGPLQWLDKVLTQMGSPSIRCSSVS

Variant | effect of a mutation on the interaction
G196R | with no effect

Variants of: B3
Conditions: with aakb2_human PRKAB2, O43741
Chain of aakb2_human PRKAB2, O43741 (O43741 whole entry): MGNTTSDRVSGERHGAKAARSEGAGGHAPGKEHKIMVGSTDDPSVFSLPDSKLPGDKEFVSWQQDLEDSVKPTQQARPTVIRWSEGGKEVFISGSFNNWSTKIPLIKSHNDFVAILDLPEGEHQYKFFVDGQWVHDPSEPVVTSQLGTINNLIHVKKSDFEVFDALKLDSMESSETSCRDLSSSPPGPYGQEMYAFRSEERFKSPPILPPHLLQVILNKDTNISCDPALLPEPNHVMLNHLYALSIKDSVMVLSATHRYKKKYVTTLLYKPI

Variant | effect of a mutation on the interaction
G196R | with no effect

Variants of: B3
Conditions: with blk_human BLK

Variant | effect of a mutation on the interaction
G196R | with no effect

Variants of: B4
Conditions: with tfp11_human TFIP11, Q9UBB9
Chain of tfp11_human TFIP11, Q9UBB9 (Q9UBB9 whole entry): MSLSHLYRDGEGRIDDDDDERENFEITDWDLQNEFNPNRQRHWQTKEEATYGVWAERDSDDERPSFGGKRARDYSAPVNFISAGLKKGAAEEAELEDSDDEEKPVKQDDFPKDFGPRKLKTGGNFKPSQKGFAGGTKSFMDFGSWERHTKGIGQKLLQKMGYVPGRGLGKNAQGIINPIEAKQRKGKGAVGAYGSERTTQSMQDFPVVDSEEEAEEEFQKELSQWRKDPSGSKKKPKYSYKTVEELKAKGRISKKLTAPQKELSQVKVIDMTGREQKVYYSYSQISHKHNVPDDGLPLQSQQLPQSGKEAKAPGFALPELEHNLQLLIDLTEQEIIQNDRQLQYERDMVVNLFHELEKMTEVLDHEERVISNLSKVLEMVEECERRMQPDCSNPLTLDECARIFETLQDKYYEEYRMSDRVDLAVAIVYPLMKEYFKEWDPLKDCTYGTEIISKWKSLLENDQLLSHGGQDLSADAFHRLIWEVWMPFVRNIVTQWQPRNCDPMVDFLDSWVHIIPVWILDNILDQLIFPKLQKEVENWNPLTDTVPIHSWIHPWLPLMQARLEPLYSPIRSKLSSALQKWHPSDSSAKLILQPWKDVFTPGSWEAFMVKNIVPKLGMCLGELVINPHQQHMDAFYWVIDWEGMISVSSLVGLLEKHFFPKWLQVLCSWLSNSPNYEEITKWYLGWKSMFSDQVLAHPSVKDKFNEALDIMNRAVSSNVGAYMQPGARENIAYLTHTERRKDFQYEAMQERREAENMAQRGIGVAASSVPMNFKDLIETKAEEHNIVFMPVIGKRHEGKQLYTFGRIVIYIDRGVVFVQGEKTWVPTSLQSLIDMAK

Variant | effect of a mutation on the interaction
MDEESLESALQTYRAQLQQVELALGAGLDSSEQADLRQLQGDLKELIELTEASLVSVRKSRLLAALDEERPGRQEDAEYQAFREAITEAVEAPAAARGSGSETVPKAEAGPESAAGGQEEEEGEDEEELSGTKVSAPYYSSWGTLEYHNAMVVGTEEAEDGSAGVRVLYLYPTHKSLKPCPFFLEGKCRFKENCRFSHGQVVSLDELRPFQDPDLSSLQAGSACLAKHQDGLWHAARITDVDNGYYTVKFDSLLLREAVVEGDGILPPLRTEATESDSDSDGTGDSSYARVVGSDAVDSAQSSALCPSLAVVGSDAVDSGTCSSAFAGWEVHTRGIGSRLLTKMGYEFGKGLGRHAEGRVEPIHAVVLPRGKSLDQCVETLQKQTRVGKAGTNKPPRCRGRGARPGGRPAPRNVFDFLNEKLQGQAPGALEAGAAPAGRRSKDMYHASKSAKRALSLRLFQTEEKIERTQRDIRSIQEALARNAGRHSVASAQLQEKLAGAQRQLGQLRAQEAGLQQEQRKADTHKKMTEF [S61R] | with no effect

Variants of: B4
Conditions: with cep70_human CEP70, Q8NHQ1
Chain of cep70_human CEP70, Q8NHQ1 (Q8NHQ1 whole entry): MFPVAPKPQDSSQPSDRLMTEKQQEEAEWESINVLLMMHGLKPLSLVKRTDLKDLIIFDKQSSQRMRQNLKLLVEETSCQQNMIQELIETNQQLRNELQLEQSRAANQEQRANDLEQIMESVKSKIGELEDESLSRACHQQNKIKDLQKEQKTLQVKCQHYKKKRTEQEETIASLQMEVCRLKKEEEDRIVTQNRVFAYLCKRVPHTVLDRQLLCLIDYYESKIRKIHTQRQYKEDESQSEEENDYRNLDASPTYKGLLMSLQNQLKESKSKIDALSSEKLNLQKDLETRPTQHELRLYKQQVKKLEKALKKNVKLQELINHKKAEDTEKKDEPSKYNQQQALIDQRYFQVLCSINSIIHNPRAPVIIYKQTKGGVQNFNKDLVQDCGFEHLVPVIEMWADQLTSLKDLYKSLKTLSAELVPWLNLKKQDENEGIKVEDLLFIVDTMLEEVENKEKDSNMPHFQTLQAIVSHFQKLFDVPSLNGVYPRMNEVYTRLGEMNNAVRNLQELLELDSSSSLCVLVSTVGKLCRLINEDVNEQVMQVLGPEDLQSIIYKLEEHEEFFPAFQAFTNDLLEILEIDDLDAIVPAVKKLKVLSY

Variant | effect of a mutation on the interaction
MDEESLESALQTYRAQLQQVELALGAGLDSSEQADLRQLQGDLKELIELTEASLVSVRKSRLLAALDEERPGRQEDAEYQAFREAITEAVEAPAAARGSGSETVPKAEAGPESAAGGQEEEEGEDEEELSGTKVSAPYYSSWGTLEYHNAMVVGTEEAEDGSAGVRVLYLYPTHKSLKPCPFFLEGKCRFKENCRFSHGQVVSLDELRPFQDPDLSSLQAGSACLAKHQDGLWHAARITDVDNGYYTVKFDSLLLREAVVEGDGILPPLRTEATESDSDSDGTGDSSYARVVGSDAVDSAQSSALCPSLAVVGSDAVDSGTCSSAFAGWEVHTRGIGSRLLTKMGYEFGKGLGRHAEGRVEPIHAVVLPRGKSLDQCVETLQKQTRVGKAGTNKPPRCRGRGARPGGRPAPRNVFDFLNEKLQGQAPGALEAGAAPAGRRSKDMYHASKSAKRALSLRLFQTEEKIERTQRDIRSIQEALARNAGRHSVASAQLQEKLAGAQRQLGQLRAQEAGLQQEQRKADTHKKMTEF [S61R] | with no effect

Variants of: B4
Conditions: with ldoc1_human LDOC1, O95751
Chain of ldoc1_human LDOC1, O95751 (O95751 whole entry): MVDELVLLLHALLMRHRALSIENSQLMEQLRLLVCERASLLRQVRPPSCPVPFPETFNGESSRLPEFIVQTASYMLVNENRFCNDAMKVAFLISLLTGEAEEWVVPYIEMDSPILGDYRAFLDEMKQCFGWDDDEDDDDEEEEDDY

Variant | effect of a mutation on the interaction
MDEESLESALQTYRAQLQQVELALGAGLDSSEQADLRQLQGDLKELIELTEASLVSVRKSRLLAALDEERPGRQEDAEYQAFREAITEAVEAPAAARGSGSETVPKAEAGPESAAGGQEEEEGEDEEELSGTKVSAPYYSSWGTLEYHNAMVVGTEEAEDGSAGVRVLYLYPTHKSLKPCPFFLEGKCRFKENCRFSHGQVVSLDELRPFQDPDLSSLQAGSACLAKHQDGLWHAARITDVDNGYYTVKFDSLLLREAVVEGDGILPPLRTEATESDSDSDGTGDSSYARVVGSDAVDSAQSSALCPSLAVVGSDAVDSGTCSSAFAGWEVHTRGIGSRLLTKMGYEFGKGLGRHAEGRVEPIHAVVLPRGKSLDQCVETLQKQTRVGKAGTNKPPRCRGRGARPGGRPAPRNVFDFLNEKLQGQAPGALEAGAAPAGRRSKDMYHASKSAKRALSLRLFQTEEKIERTQRDIRSIQEALARNAGRHSVASAQLQEKLAGAQRQLGQLRAQEAGLQQEQRKADTHKKMTEF [S61R] | with no effect

Variants of: B5
Conditions: with rxrg_human RXRG

Variant | effect of a mutation on the interaction
MASNSSSCPTPGGGHLNGYPVPPYAFFFPPMLGGLSPPGALTTLQHQLPVSGYSTPSPATIETQSSSSEEIVPSPPSPPPLPRIYKPCFVCQDKSSGYHYGVSACEGCKGFFRRSIQKNMVYTCHRDKNCIINKVTRNRCQYCRLQKCFEVGMSKESVRNDRNKKKKEVPKPECSESYTLTPEVGELIEKVRKAHQETFPALCQLGKYTTNNSSEQRVSLDIDLWDKFSELSTKCIIKTVEFAKQLPGFTTLTIADQITLLKAACLDILILRICTRYTPEQDTMTFSDGLTLNRTQMHNAGFGPLTDLVFAFANQLLRLEMDDAETGLLSAICLICGDRQDLEQPDRVDMLQEPLLEALKVYVRKRRPSRPHMFPKMLMKITDLRSISAKGAERVITLKMEIPGSMPPLIQEMLENSEGLDTLSGQPGGGGRDGGGLAPPPGSCSPSLSPSSNRSSPATHSP [P318R] | with no effect
